Measurements from PMC3006652.

Molecular target: full-length UvsX (UvsX_(1–391)) (bacteriophage T4) (UniProt P04529)
Test: non-reducing SDS PAGE

In the case of “full-length UvsX (UvsX_(1–391)) (from UniProt P04529 1-391) (natural protein)”, the ratio of dimers and monomers under oxidizing conditions was 0.5 and the stoichiometry N was 2.
